# Reference: paper PMC6449189
# Read-outs that look alike come from different tables or passages of the source.
# Columns and labels:
# Experiment in all cases: EMSA
# [1] = biological target: T1, LbCas12a (Lachnospiraceae bacterium ND2006, UniProt A0A5S8WF58 1-1228)
# [2] = biological target: T1, LbCas12a; remark: listed apart in the source
# [3] = biological target: T1, LbCas12a; remark: listed apart in the source
# [4] = biological target: T1, LbCas12a; remark: listed apart in the source
binder,measurement,setting,value
AAUUUCUACUAAGUGUAGAUAAAGUGCUCAUCAUUGGAAAACGU (structured_RNA) [LbCas12a crRNA (24-nt T1) rGJK_007],Kd,[1],38.9 ± 4.7 nM
same,Kd,[2],17.6 ± 2.4 nM
same,Kd,[3],16.4 ± 2.1 nM
same,Kd,[4],35.8 ± 4.4 nM
